# Source: the supplement of paper PMC10724198
# ± gives the standard deviation of the averaged measurements.
# Test system: Saccharomyces cerevisiae
# Experiment: protein stability index of tFT-peptide fusion (C-terminal peptide) (PSI (0-1 scale)); higher = more stable (slower turnover)
# Conditions: genetic background: wild type; temperature: 30 C
# Method: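 Multiplexed protein stability (MPS) profiling in S. cerevisiae. Random 12-aa peptides (tFT-X12 library) are fused to the C-terminus of a sfGFP-mCherry tandem fluorescent timer, after mCherry and a GGGS linker. Cells are FACS-sorted into 8 mCherry/sfGFP bins and deep-sequenced. The protein stability index (PSI) is the read-weighted bin average, scaled from 0 (unstable) to 1 (stable). Only peptides with >10 reads are reported; cells were grown at 30 °C in SC-His with glucose.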
# 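Further: PSI is a weighted mean of sequencing reads over stability bins, variants kept only with over 10 reads, mCherry proximal and sfGFP distal, peptide attached via GGGS linker.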
row,Sequence,protein stability index
1,FQEDSPVSQRYP,0.645 ± 0.041
2,FQGALFTEVVES,0.716 ± 0.043
3,FQNFTLSQEQSE,0.717 ± 0.014
4,FRCPGFYVVIFP,0.582 ± 0.0092
5,FRDLRSSVLVLP,0.6599 ± 0.0058
6,FRFVFFFRSGLV,0.595 ± 0.063
7,FRIVLIRASDPS,0.625 ± 0.032
8,FRLLLFPLPLSP,0.494 ± 0.011
9,FRLPTCLLLFPF,0.594 ± 0.098
10,FRPPVPPPPVLP,0.683 ± 0.012
11,FRSFLDHPRSPC,0.729 ± 0.029
12,FRVFLGHLITRK,0.727 ± 0.039
13,FRVKVFGLPFWL,0.509 ± 0.028
14,FSAFFLFMFCFL,0.488 ± 0.025
15,FSCKGSYIFTRR,0.651 ± 0.012
16,FSCLRSINRDVG,0.702 ± 0.044
17,FSETDSWCQARS,0.717 ± 0.013
18,FSGGPSTPPTWS,0.817 ± 0.01
19,FSHPQPLLPFPV,0.662 ± 0.0094
20,FSISCFRVSSDF,0.761 ± 0.032
21,FSKVLCSIVRGR,0.655 ± 0.015
22,FSLFSLPFPFPL,0.7752 ± 0.0015
23,FSLLTFPPSSPT,0.716 ± 0.016
24,FSLPLSPRGDCP,0.6991 ± 0.0014
25,FSMHFARFFSCS,0.687 ± 0.061
26,FSPPTLSLPGPI,0.721 ± 0.0083

row,Sequence,protein stability index
1,FSPRHSPFSVAR,0.803 ± 0.05
2,FSSGLAEVGVAR,0.676 ± 0.074
3,FSSLHLTHELLS,0.664 ± 0.061
4,FSTIWDRLLLTG,0.668 ± 0.083
5,FSVGSPLSSPGI,0.713 ± 0.04
6,FSVHVPPFPPVP,0.654 ± 0.038
7,FSYPPSLVPFCS,0.702 ± 0.019
8,FTACSVCVETMN,0.678 ± 0.17
9,FTGYPKHTRLPY,0.687 ± 0.017
10,FTKAVQVFLASV,0.635 ± 0.057
11,FTNDMSSGRVAI,0.692 ± 0.016
12,FTPPPPPPPPVL,0.6691 ± 0.0051
13,FVAGFAGGAVGV,0.72 ± 0.0078
14,FVFAYLPSYEAM,0.729 ± 0.023
15,FVGAEWLLFYFS,0.677 ± 0.069
16,FVPPGTTSPNTT,0.731 ± 0.059
17,FVPRFPGTTINS,0.681 ± 0.049
18,FVSLVGGFVGTV,0.646 ± 0.037
19,FVSPVPPRRVGA,0.704 ± 0.037
20,FWGCCGGVGPRG,0.709 ± 0.0077
21,FWHERVSSTVKR,0.731 ± 0.025
22,FWKSVMRYYFKR,0.669 ± 0.027
23,FWPPPATSAAPC,0.79 ± 0.011
24,FYFLFVFICLRV,0.6642 ± 0.0062
25,FYIQVFTPLGGS,0.639 ± 0.0097
26,FYLRRNILGQDC,0.695 ± 0.0096

row,Sequence,protein stability index
1,FYPLPSYFAYPI,0.663 ± 0.022
2,FYSLFLPRPFLS,0.579 ± 0.024
3,FYVTRIGPLDMS,0.801 ± 0.023
4,GAAGASCDCTGG,0.695 ± 0.07
5,GACIRLLPSFGY,0.6434 ± 0.0041
6,GACWRDSHSGGD,0.683 ± 0.023
7,GAEKGSVPGGDK,0.654 ± 0.05
8,GAEQSTDEFIRG,0.7058 ± 0.0012
9,GAGAAVHRAAPG,0.672 ± 0.029
10,GAGFCSGLRGAG,0.689 ± 0.088
11,GAGGVGGTSGGK,0.675 ± 0.084
12,GAGLWGGRGRRW,0.6489 ± 0.0063
13,GAGRAVRAFCVL,0.651 ± 0.02
14,GAGRGKEREYRP,0.61356 ± 0.00019
15,GAGVLTLDNRRV,0.674 ± 0.019
16,GAKAARTTITSG,0.653 ± 0.026
17,GAKSENSLTTVQ,0.673 ± 0.013
18,GALANPLGHSHL,0.792 ± 0.11
19,GALGCHPGLPSP,0.714 ± 0.025
20,GALIGNDGHVSG,0.679 ± 0.027
21,GANLVTGKLTDG,0.693 ± 0.036
22,GAQSAVLQNPPA,0.6238 ± 0.0042
23,GARERRRRRRRP,0.713 ± 0.025
24,GARGGGRSRGTR,0.779 ± 0.091
25,GARRVVFSSVLQ,0.774 ± 0.13
26,GASCRDCVTRGS,0.745 ± 0.042

row,Sequence,protein stability index
1,GASGGGQSSFGE,0.669 ± 0.013
2,GASVWGRGTRKI,0.6902 ± 0.0059
3,GATGGACGGWAG,0.67249 ± 0.00044
4,GATRCQTYPAGA,0.686 ± 0.04
5,GAVTNHAMASRP,0.725 ± 0.035
6,GAVVLSRFRCLP,0.639 ± 0.035
7,GAWASLPGLISP,0.729 ± 0.058
8,GAWGFVWLGVGC,0.658 ± 0.031
9,GAWWRMEQAFGV,0.757 ± 0.034
10,GCADNNRLGNVV,0.66 ± 0.011
11,GCAWGVKYEVIL,0.637 ± 0.05
12,GCDELGGRRFGR,0.7207 ± 0.0051
13,GCFDLNPDLFQG,0.688 ± 0.022
14,GCFLIANMCLLG,0.665 ± 0.0035
15,GCLFSVLQSPSV,0.721 ± 0.02
16,GCLSPSTPLWFP,0.71454 ± 0.00037
17,GCLSRLCKGKVM,0.599 ± 0.033
18,GCRCSSGLGGFW,0.649 ± 0.11
19,GCVPGVGRDVVV,0.719 ± 0.019
20,GCWHFWQFFCHY,0.678 ± 0.024
21,GDHGSYAGPALL,0.673 ± 0.047
22,GDITEVDISKHI,0.75 ± 0.051
23,GDLGPADRQPAG,0.639 ± 0.027
24,GDLYWLRNAMSL,0.731 ± 0.012
25,GDSPSGKPAERT,0.661 ± 0.065
26,GDTQESSHIRIY,0.669 ± 0.051

row,Sequence,protein stability index
1,GEAGICAGTAGG,0.693 ± 0.041
2,GEALSFIFVSPP,0.722 ± 0.033
3,GEAVAGRRQESP,0.695 ± 0.073
4,GEDFRVLVFVRL,0.556 ± 0.0099
5,GEFARSTRLAWV,0.682 ± 0.027
6,GEFISRSSRIEI,0.64 ± 0.042
7,GEGGGLRARQKP,0.673 ± 0.057
8,GEGHGGMLDVVM,0.686 ± 0.066
9,GELGGRAWVERG,0.683 ± 0.044
10,GELGGRSWVERG,0.648 ± 0.099
11,GELPGLFRCCLM,0.492 ± 0.072
12,GENLGGDVFNIG,0.73 ± 0.0031
13,GENPEPRHGRGN,0.698 ± 0.022
14,GEQGAPLSIRYS,0.622 ± 0.021
15,GEQGVLARSDRI,0.589 ± 0.025
16,GEQSYGGHSVQT,0.642 ± 0.054
17,GERSGVSIRHEG,0.726 ± 0.016
18,GESIIQTCLNSI,0.845 ± 0.017
19,GESLSLVRIWRK,0.625 ± 0.13
20,GESRPPLASPHP,0.708 ± 0.0087
21,GETGGACGVWAG,0.685 ± 0.066
22,GETQAAGAKYLG,0.724 ± 0.019
23,GEYEHHKNKKRR,0.7 ± 0.075
24,GFALRESWFIFV,0.644 ± 0.018
25,GFAVGDQFIVPL,0.687 ± 0.048
26,GFCLIVGVVPAL,0.5179 ± 0.0024

row,Sequence,protein stability index
1,GFHSVVMTFLRY,0.63 ± 0.017
2,GFILTVAPNLEH,0.648 ± 0.031
3,GFKMSMGCEQSS,0.722 ± 0.076
4,GFLCARGAHSMT,0.704 ± 0.013
5,GFLCDTVRLGCA,0.702 ± 0.058
6,GFLCLISSLGFM,0.687 ± 0.051
7,GFLSYWYISFPF,0.641 ± 0.014
8,GFPRSPALCSQP,0.689 ± 0.017
9,GFRDGVASLFVR,0.757 ± 0.026
10,GFRWGYIGGWRW,0.741 ± 0.01
11,GFSFSSFLRGLF,0.625 ± 0.017
12,GFTAERWRVKGR,0.674 ± 0.058
13,GFVAGGVCSRPL,0.715 ± 0.076
14,GGAAWRRGVGGV,0.66 ± 0.025
15,GGAGAGHDPRRN,0.705 ± 0.019
16,GGAGGRRRIGGG,0.622 ± 0.048
17,GGARGEDRRAYV,0.668 ± 0.054
18,GGCCLWVGFQGG,0.703 ± 0.012
19,GGCGGGCGACVV,0.701 ± 0.025
20,GGCGGRGGVVVR,0.687 ± 0.02
21,GGCVCGPRVLGV,0.67 ± 0.031
22,GGCVGVLGGWGL,0.694 ± 0.0083
23,GGCVVKVRAQGP,0.636 ± 0.01
24,GGEGPKGDRGRA,0.649 ± 0.018
25,GGEVFGGRCSAV,0.734 ± 0.12
